Results on 1 protein are retold here after paper PMC3844076 (Nature, 2013).

The data set concerns the molecule itself. The data set is described as follows: SEC.

B1: EncM (as used for size exclusion chromatography) (enzyme, Streptomyces maritimus, UniProt Q9KHK2 1-464, looked up)
chain: MQFPQLDPATLAAFSAAFRGELIWPSDADYDEARRIWNGTIDRRPALIARCTSTPDVVAAVSFARKSGLLVAVRGGGHSMAGHSVCDGGIVIDLSLMNSIKVSRRLRRARAQGGCLLGAFDTATQAHMLATPAGVVSHTGLGGLVLGGGFGWLSRKYGLSIDNLTSVEIVTADGGVLTASDTENPDLFWAVRGGGGNFGVVTAFEFDLHRVGPVRFASTYYSLDEGPQVIRAWRDHMATAPDELTWALYLRLAPPLPELPADMHGKPVICAMSCWIGDPHEGERQLESILHAGKPHGLTKATLPYRALQAYSFPGAVVPDRIYTKSGYLNELSDEATDTVLEHAADIASPFTQLELLYLGGAVARVPDDATAYPNRQSPFVTNLAAAWMDPTEDARHTAWAREGYRALAGHLSGGYVNFMNPGEADRTREAYGAAKFERLQGVKAKYDPTNLFRLNQNIPPSSP
modifications: FAD covalently linked to His78 via the C8-methyl of the isoalloxazine ring
For the protein B1, the “stoichiometry N” value amounted to 2.

The stoichiometry N is the number of molecules, sites or subunits per partner or assembly.
